Where two headings read alike, the source gives them in different places. Each block holds one substance with its values, some of them ahead of it.
Key:
[1] = target: δ opioid receptor of the mouse isolated vas deferens (mouse) (UniProt P32300); assay: cell-based or functional assay
[2] = target: human NK1 receptor (human) (UniProt P25103); assay: competition vs [3H]Substance P, hNK1 CHO cell membranes
rat NK1 receptor (rat) [3] = target: rat NK1 receptor (rat) (UniProt P14600); assay: competition vs [3H]Substance P, rNK1 CHO cell membranes
rat NK1 receptor (rat), sequence (P14600 whole entry): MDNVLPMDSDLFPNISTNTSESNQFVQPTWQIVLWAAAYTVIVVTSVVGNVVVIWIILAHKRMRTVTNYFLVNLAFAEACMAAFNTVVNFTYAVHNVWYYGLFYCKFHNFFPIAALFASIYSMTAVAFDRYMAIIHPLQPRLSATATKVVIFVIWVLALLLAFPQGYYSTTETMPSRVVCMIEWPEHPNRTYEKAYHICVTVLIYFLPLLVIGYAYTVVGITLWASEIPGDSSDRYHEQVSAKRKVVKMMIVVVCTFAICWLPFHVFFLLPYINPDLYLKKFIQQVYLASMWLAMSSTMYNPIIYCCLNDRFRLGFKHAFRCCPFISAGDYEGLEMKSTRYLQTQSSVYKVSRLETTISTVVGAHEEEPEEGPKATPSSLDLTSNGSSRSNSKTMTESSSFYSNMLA

[4] = target: human δ opioid receptor (human) (UniProt P41143); assay: cell-based or functional assay
human δ opioid receptor (human), sequence (P41143 whole entry, stated change not applied): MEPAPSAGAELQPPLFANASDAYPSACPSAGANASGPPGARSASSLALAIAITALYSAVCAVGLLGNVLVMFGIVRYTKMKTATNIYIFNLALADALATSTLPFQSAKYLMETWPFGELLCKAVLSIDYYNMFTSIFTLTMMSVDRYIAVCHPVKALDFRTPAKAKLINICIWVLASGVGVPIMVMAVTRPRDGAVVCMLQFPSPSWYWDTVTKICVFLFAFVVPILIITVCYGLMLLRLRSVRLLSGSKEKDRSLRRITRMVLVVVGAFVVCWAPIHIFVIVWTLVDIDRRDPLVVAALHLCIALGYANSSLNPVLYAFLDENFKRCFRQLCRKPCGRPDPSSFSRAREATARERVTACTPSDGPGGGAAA

[5] = target: rat µ opioid receptor (rat) (UniProt P33535); assay: cell-based or functional assay
rat µ opioid receptor (rat), sequence (P33535 whole entry): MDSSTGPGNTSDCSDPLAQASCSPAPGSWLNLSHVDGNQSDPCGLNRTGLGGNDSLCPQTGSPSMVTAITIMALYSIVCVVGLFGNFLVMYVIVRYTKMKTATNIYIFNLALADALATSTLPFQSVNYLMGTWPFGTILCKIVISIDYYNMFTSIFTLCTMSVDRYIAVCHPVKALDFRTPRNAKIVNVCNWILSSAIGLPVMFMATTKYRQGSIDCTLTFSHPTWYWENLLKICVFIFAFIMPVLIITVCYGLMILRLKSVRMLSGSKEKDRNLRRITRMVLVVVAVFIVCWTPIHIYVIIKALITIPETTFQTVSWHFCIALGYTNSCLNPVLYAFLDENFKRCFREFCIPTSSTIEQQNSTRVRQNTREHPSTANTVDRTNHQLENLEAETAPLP

[6] = target: rat µ opioid receptor (rat) (UniProt P33535); assay: competition vs [3H]DAMGO, rMOR cell membranes
[7] = target: human δ opioid receptor (human) (UniProt P41143); assay: competition vs [3H]DPDPE, hDOR cell membranes
[8] = target: guinea pig NK1 receptor (guinea pig) (UniProt P30547); assay: cell-based or functional assay
guinea pig NK1 receptor (guinea pig), sequence (P30547 whole entry): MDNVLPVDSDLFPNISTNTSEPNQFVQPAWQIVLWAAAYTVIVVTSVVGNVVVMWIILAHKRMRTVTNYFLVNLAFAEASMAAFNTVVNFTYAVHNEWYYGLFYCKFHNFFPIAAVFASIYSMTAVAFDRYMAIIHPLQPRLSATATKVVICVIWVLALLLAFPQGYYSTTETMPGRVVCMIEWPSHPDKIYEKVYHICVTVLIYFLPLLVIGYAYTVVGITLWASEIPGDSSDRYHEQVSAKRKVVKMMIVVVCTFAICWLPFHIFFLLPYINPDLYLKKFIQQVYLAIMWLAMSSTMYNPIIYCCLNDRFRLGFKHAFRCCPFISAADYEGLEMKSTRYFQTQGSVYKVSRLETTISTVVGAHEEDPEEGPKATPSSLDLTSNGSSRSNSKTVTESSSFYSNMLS

[9] = target: µ opioid receptor of the guinea pig isolated ileum (guinea pig) (UniProt P97266); assay: cell-based or functional assay
µ opioid receptor of the guinea pig isolated ileum (guinea pig), sequence (P97266 whole entry): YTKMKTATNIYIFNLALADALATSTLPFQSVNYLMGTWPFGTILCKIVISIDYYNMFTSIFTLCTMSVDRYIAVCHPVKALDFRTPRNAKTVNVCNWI

[10] = target: human NK1 receptor (human) (UniProt P25103); assay: radioligand competition vs [3H]substance P, membranes of hNK1 CHO cells
[11] = target: rat µ opioid receptor (rat) (UniProt P33535); assay: radioligand competition vs [3H]DAMGO, membranes of rMOR cells
rat NK1 receptor (rat) [12] = target: rat NK1 receptor (rat) (UniProt P14600); assay: radioligand competition vs [3H]substance P, membranes of rNK1 CHO cells
[13] = target: human δ opioid receptor (human) (UniProt P41143); assay: radioligand competition vs [3H]DPDPE, membranes of hDOR cells
[14] = target: rat µ opioid receptor (rat) (UniProt P33535); assay: cell-based or functional assay; remark: listed apart in the source
[15] = target: rat µ opioid receptor (rat) (UniProt P33535); assay: radioligand saturation, rMOR membranes
[16] = target: human δ opioid receptor (human) (UniProt P41143); assay: radioligand saturation, hDOR membranes
[17] = target: human δ opioid receptor (human) (UniProt P41143); assay: radioligand saturation, hDOR cell membranes

δ opioid receptor of the mouse isolated vas deferens (mouse), sequence (P32300 whole entry, stated change not applied): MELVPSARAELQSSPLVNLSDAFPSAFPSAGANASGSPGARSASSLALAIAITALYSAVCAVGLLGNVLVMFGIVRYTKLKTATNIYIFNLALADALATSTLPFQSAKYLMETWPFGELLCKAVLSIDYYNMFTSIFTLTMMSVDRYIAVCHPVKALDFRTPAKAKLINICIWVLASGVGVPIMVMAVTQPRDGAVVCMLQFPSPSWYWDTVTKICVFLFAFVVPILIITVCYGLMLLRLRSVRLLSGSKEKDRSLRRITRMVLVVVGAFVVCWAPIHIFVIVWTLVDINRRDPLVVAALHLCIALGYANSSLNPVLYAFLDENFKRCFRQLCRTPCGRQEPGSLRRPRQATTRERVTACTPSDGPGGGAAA
human NK1 receptor (human), sequence (P25103 whole entry): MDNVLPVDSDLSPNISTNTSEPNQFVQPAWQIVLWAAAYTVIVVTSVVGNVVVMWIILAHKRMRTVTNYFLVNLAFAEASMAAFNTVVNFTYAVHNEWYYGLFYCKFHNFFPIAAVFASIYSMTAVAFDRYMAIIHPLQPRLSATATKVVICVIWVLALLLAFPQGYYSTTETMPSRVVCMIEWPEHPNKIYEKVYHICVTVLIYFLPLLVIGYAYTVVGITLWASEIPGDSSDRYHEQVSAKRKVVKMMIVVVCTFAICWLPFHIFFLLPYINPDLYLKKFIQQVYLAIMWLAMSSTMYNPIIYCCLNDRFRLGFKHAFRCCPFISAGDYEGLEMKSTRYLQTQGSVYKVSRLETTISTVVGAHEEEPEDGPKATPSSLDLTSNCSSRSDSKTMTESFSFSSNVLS

Substance: Biphalin (peptide)
- MVD (δ) IC50 [1]: 2.7 nM
- MVD (δ) opioid agonist IC50 [1]: 2.7 nM

Substance: DMT-D-Ala-Trp-O-3′,5′(CF3)2-Bzl (NP48) (peptide)
- MVD δ-agonist IC50 [1]: 408 nM

Substance: Tyr-D-Ala-Gly-pFPhe-O-3′,5′(CF3)2-Bzl (NP62) (peptide)
- MVD δ-agonist IC50 [1]: 184 nM
- GPI SP-antagonist Ke [8]: 51.8 nM

Substance: Tyr-D-Ala-Trp-O-3′,5′(CF3)2-Bzl (NP43) (peptide)
- MVD δ-agonist IC50 [1]: 5.5 % at 1 µM
- GPI µ-agonist IC50 [9]: 3.3 % at 1 µM
- GPI SP-antagonist Ke [8]: 49.4 nM

Substance: Tyr-Gly-Trp-O-3′,5′(CF3)2-Bzl (NP42) (peptide)
- GPI µ-agonist IC50 [9]: 2.6 % at 1 µM

Substance: Tyr[DCysGlyPheDCys]ProLeuTrpNHBn(CF3)2 (TY037) (peptide)
- Ki [11]: 51.5 nM
- GTP binding hDOR EC50 [4]: 98.2 nM
- GTP binding hDOR Emax [4]: 26%
- GTP binding rMOR EC50 [5]: 52.9 nM
- GTP binding rMOR Emax [5]: 8%
- Ki (rat NK1 receptor (rat) [12]): 45.5 nM
- Ki [13]: 7.8 nM

The next lines start with the values.

- Ki [2]: 16 pM
- Ki (rat NK1 receptor (rat) [3]): 0.28 nM
- GTP EC50 [4]: 11.5 nM
- GTP EC50 [5]: 1.6 nM
- Ki [6]: 0.3 nM
- Ki [7]: 0.8 nM
Substance: DMT-D-Ala-Trp-O-3′,5′(CF3)2-Bzl (peptide)

- Ki [2]: 4 pM
- Ki (rat NK1 receptor (rat) [3]): 2.94 nM
- GTP EC50 [4]: 90.9 nM
- GTP EC50 [5]: 168 nM
- Ki [6]: 178 nM
- Ki [7]: 100 nM
Substance: Tyr-D-Ala-Trp-O-3′,5′(CF3)2-Bzl (peptide)

- Ki [2]: 3 pM
- Ki (rat NK1 receptor (rat) [3]): 0.36 nM
Substance: Tyr-Gly-Trp-O-3′,5′(CF3)2-Bzl (peptide)

- Ki [10]: 0.066 nM
- Ki [11]: 112 nM
- GTP binding hDOR EC50 [4]: 0.26 nM
- GTP binding hDOR Emax [4]: 41.1%
- GTP binding rMOR EC50 [5]: 53.8 nM
- GTP binding rMOR Emax [5]: 51.4%
- Ki (rat NK1 receptor (rat) [12]): 7.75 nM
- Ki [13]: 5 nM
Substance: TyrDAlaGlyPheMetCLeuLeuTrpOBn(CF3)2 (TY021) (peptide)

- [35S]GTP-γ-S binding LogEC50 [14]: -7.44
- Kd [15]: 0.5 nM
- [35S]GTP-γ-S binding EC50 [5]: 37 nM
- [35S]GTP-γ-S binding Emax [5]: 150%
- [35S]GTP-γ-S binding LogEC50 [5]: -7.4
- [35S]GTPγS binding EC50 [5]: 37 nM
- [35S]GTPγS binding Emax [5]: 150%
- [35S]GTPγS binding LogEC50 [5]: -7.4
Substance: [3H]-[D-Ala2,NMePhe4,Gly5-ol]enkephalin (peptide)

- [35S]GTP-γ-S binding EC50 [4]: 1.6 nM
- [35S]GTP-γ-S binding Emax [4]: 69%
- [35S]GTP-γ-S binding LogEC50 [4]: -8.8
- [35S]GTPγS binding EC50 [4]: 1.6 nM
- [35S]GTPγS binding Emax [4]: 69%
- [35S]GTPγS binding LogEC50 [4]: -8.8
- Kd [16]: 0.45 nM
Substance: [3H]-c[D-Pen2,D-Pen5]enkephalin (peptide)

- Kd [17]: 0.45 nM
Substance: c[D-Pen2,D-Pen5]enkephalin (peptide)

— patent publication US8026218
